Laboratory results: patent US20200199244A1

Experiments:
[1] = target: biotinylated human CD40 (human) (UniProt P25942); test: SPR, BIAcore 3000 COINJECT over biotinylated human CD40; mixture after first injection; competitor G28-5 Fab
[2] = target: biotinylated human CD40 (human) (UniProt P25942); test: SPR, BIAcore 3000, Fab injected alone over biotinylated human CD40 on SA chip
[3] = target: biotinylated human CD40 (human) (UniProt P25942); test: SPR, BIAcore 3000 COINJECT over biotinylated human CD40; mixture after first injection; competitor BMS3h-193-12
[4] = target: biotinylated human CD40 (human) (UniProt P25942); test: SPR, BIAcore 3000 COINJECT over biotinylated human CD40; mixture after first injection; competitor BMS3h-56-5
[5] = target: biotinylated human CD40 (human) (UniProt P25942); test: SPR, BIAcore 3000 COINJECT over biotinylated human CD40; mixture after first injection; competitor Chi220 Fab
[6] = target: biotinylated human CD40 (human) (UniProt P25942); test: SPR, BIAcore 3000, 1 µM Fab alone over biotinylated human CD40

Sequence of biotinylated human CD40 (human) (P25942 21-193 limits assumed): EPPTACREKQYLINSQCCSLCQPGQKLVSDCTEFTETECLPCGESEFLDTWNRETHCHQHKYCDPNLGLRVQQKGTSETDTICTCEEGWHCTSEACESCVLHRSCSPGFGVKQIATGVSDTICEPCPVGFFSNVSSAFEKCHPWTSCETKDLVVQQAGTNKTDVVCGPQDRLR

Second Injection (% of single dAb/Fab RU) [1]	RU first dAb/Fab alone [2]	Second Injection (% of single dAb/Fab RU) [3]	Second Injection (% of single dAb/Fab RU) [4]	Second Injection (% of single dAb/Fab RU) [5]	Single dAb RU [6]	Substance
39%	1090 RU	98%	98%	–	–	Chi220 Fab'
–	730 RU	93%	94%	11%	730 RU	G28-5 Fab'
